Here are results for two molecules from US20040210040A1 (PDL BIOPHARMA, published 2004).

Where only a bound is given, the exact number is not on record here.

Broadly, the Kd is the concentration at which binding is half-saturated. One may read the koff as the rate constant with which the complex falls apart. By kon is commonly meant the rate constant with which the complex forms. By IC50 is commonly meant the concentration that inhibits the measured activity by half.

For experiment [1], the target named is T1, recombinant soluble human amphiregulin (human, UniProt P15514 101-198, limits assumed).
T1 construct: also called AR; human AR
T1 sequence: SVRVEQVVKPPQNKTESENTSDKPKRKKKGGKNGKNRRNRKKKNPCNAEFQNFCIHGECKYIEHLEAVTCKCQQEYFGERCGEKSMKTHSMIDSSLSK
Nature of the experiment: SPR (BIAcore 3000). How it is done:
(§1) Affinities between human amphiregulin (AR) and PAR34 or HuPAR34 were analyzed using BIAcore 3000 (BLAcore, Sweden).
(§2) The BIAcore analysis may be conducted according to the following protocol. PAR34 or HuPAR34 is immobilized on the Pioneer F1 chip using standard amine coupling kit (BIAcore). Surface plasmon resonance is measured at a flow rate of 50 μl/min at 24° C. Injection of AR (association phase) occurs over 180 seconds. Dissociation is subsequently monitored over 3 hours. Kinetics of binding (ka and kd) are calculated from data acquired at five different concentrations of analyte (320 nM, 160 nM, 80 nM, 40 nM, 20 nM), using the BIAevaluation program. Double-referencing is applied to eliminate responses from reference surface and buffer only control. The binding affinity, KD, is obtained by simultaneously fitting the association and dissociation phases of the sensorgram from the analyte concentration series.
(In general: Surface plasmon resonance follows binding to a sensor surface in real time, without labels.)

For experiment [2], the target named is T1, recombinant soluble human amphiregulin. Nature of the experiment: cell-based or functional assay.
The target is the same in experiment [3]. Nature of the experiment: competition ELISA against biotinylated PAR34, Exp. A. How it is done:
(§3) The affinity of HuPAR34 to human amphiregulin was analyzed by competition ELISA. MaxiSorp ELISA plates (Nalge Nunc International) were coated overnight at 4° C. with 100 μl/well of 0.5 μg/ml recombinant soluble human amphiregulin in 0.2 M sodium carbonate-bicarbonate buffer, pH 9.4, washed with Wash Buffer (PBS containing 0.1% Tween 20), and blocked for 15 min at room temperature with 200 μl/well of SuperBlock Blocking Buffer in TBS (Pierce Chemical Company). After washing with Wash Buffer, a mixture of biotinylated PAR34 (0.125 μg/ml final concentration) and competitor antibody (PAR34 or HuPAR34 starting at 75 μg/ml final concentration and serially diluted 3-fold) in 100 μl/well of ELISA buffer was added in triplicate. As a control, 100 μl/well of 75 μg/ml of humanized anti-CD33 IgG1/κ monoclonal antibody HuM195 (Co, M. S. et al., J. Immunol., 148: 1149-1154 (1992)) in ELISA buffer was used. As a no-competitor control, 100 μl/well of ELISA Buffer was used. After incubating the plates for 1 hr and washing with Wash Buffer, bound antibodies were detected using 100 μl/well of 1 μg/ml HRP-conjugated streptavidin (Pierce Chemical Company) in ELISA buffer. After incubating for 0.5 hr at room temperature and washing with Wash Buffer, color development was performed by adding 100 μl/well of ABTS substrate (KPL, Inc.). […] Absorbance was read at 415 nm. […]
(ELISA stands for enzyme-linked immunosorbent assay.)

For experiment [4] the target is unchanged. Nature of the experiment: competition ELISA against biotinylated PAR34, Exp. B. How it is done:
as §3

For experiment [5] the target is unchanged. Nature of the experiment: competition ELISA against biotinylated PAR34, Exp. C. As to the method: as §3
The target is the same in experiment [6]. The experiment is described as follows: competition ELISA against biotinylated PAR34, Exp. D. How it is done:
as §3

For experiment [7] the target is unchanged. Nature of the experiment: SPR (BIAcore 3000), antibody immobilized, AR as analyte. As to the method:
as §1, §2

The target is the same in experiment [8]. The experiment is described as follows: competition ELISA against biotinylated PAR34, average of Exp. A-D. How it is done:
as §3

Experiment [9] has the same target. Nature of the experiment: competition ELISA on coated recombinant soluble human amphiregulin, competitor against biotinylated PAR34, Exp. A. As to the method:
as §3

For experiment [10] the target is unchanged. Nature of the experiment: competition ELISA on coated recombinant soluble human amphiregulin, competitor against biotinylated PAR34, Exp. B. How it is done: as §3
The target is the same in experiment [11]. Nature of the experiment: competition ELISA on coated recombinant soluble human amphiregulin, competitor against biotinylated PAR34, Exp. C. As to the method: as §3
Experiment [12] shares this target. Nature of the experiment: competition ELISA on coated recombinant soluble human amphiregulin, competitor against biotinylated PAR34, Exp. D. How it is done: as §3
For experiment [13] the target is unchanged. Nature of the experiment: competition ELISA on plate-coated recombinant soluble human amphiregulin; competes with biotinylated PAR34. How it is done:
as §3

Experiment [14] has the same target. Nature of the experiment: competition ELISA on coated recombinant soluble human amphiregulin, competitor against biotinylated PAR34, average of Exp. A-D. How it is done: as §3

B1: HuPAR34 (humanized PAR34, IgG1/kappa) (antibody, V domains shown)
VH: EVQLVQSGAEVKKPGASVKISCKVSGYAFTNYNMYWVRQAPGKGLEWIGYIDPYYGDPGYSQKFKGKATLTVDKSTSTAYMELSSLRSEDTAVYYCARRGNFPYYFDYWGQGTLVTVSS
VL: DIQMTQSPSSLSASVGDRVTITCKASQDINSYLSWFQQKPGKAPKTLIYRANRLVDGVPSRFSGSGSGQDYTLTISSLQPEDFATYYCLQYDEFPYTFGGGTKVEIK
Take B1: the “fold difference of affinity, HuPAR34 against PAR34” value in experiment [1] is at most 2 fold. The “IC50 of inhibition of AR-mediated proliferation in 3T3 cells” value in [2] was 0.055 µg/mL. For the same molecule, the “fold difference of IC50, HuPAR34 against PAR34” value in experiment [3] was determined as 2.4 fold; in [4] it was 1.4 fold; in experiment [5] it was 1.4 fold; in experiment [6], 2 fold; in experiment [8], 1.8 fold. Besides, the Kd in experiment [7] came to 0.53 nM. Besides, the koff in experiment [7] was 0.00823 s⁻¹. Also, the on-rate constant (kon) in experiment [7] turned out to be 1.26e+07 M⁻¹ s⁻¹. The IC50 in experiment [9] turned out to be 1.95 µg/mL; in experiment [10] it was 1.11 µg/mL; in experiment [11], 1.76 µg/mL; in experiment [12], 2.76 µg/mL; in [14] it was 1.9 µg/mL. Besides, the “IC50 (read off the curve)” value in experiment [13] is around 2 µg/mL.

B2: PAR34 (murine anti-amphiregulin monoclonal antibody) (antibody, mouse IgG2b, V domains shown)
VH: EIQLQQSGPELVKPGASVKVSCKASGYAFTNYNMYWVKQSHGKSLEWIGYIDPYYGDPGYSQKFKGKATLTVDKSSSTAYMHLNSLTSEDSAVYYCARRGNFPYYFDYWGQGTTLTVSS
VL: DIKMTQSPSSMYASLGERVTITCKASQDINSYLSWFQQKPGKSPKTLIYRANRLVDGVPSRFSGSGSGQDYSLTISSLEYEDMGIYYCLQYDEFPYTFGGGTKLEIK
Take B2: the “IC50 of inhibition of AR-mediated proliferation in 3T3 cells” value in [2] is 0.025 µg/mL. In [7], the Kd stood at 0.41 nM. Also, the koff in experiment [7] was 0.024 s⁻¹. In experiment [7], the kon stood at 4.8e+07 M⁻¹ s⁻¹. Moreover, the IC50 in experiment [9] is 0.82 µg/mL; in experiment [10], 0.78 µg/mL; in [11], 1.3 µg/mL; in experiment [12] it was 1.39 µg/mL; in experiment [14], 1.07 µg/mL. Also, the “IC50 (read off the curve)” value in experiment [13] is around 1 µg/mL.
